B1: Histone-binding protein RBBP7 (Homo sapiens), Q16576 (parent)
chain: MASKEMFEDTVEERVINEEYKIWKKNTPFLYDLVMTHALQWPSLTVQWLPEVTKPEGKDYALHWLVLGTHTSDEQNHLVVARVHIPNDDAQFDASHCDSDKGEFGGFGSVTGKIECEIKINHEGEVNRARYMPQNPHIIATKTPSSDVLVFDYTKHPAKPDPSGECNPDLRLRGHQKEGYGLSWNSNLSGHLLSASDDHTVCLWDINAGPKEGKIVDAKAIFTGHSAVVEDVAWHLLHESLFGSVADDQKLMIWDTRSNTTSKPSHLVDAHTAEVNCLSFNPYSEFILATGSADKTVALWDLRNLKLKLHTFESHKDEIFQVHWSPHNETILASSGTDRRLNVWDLSKIGEEQSAEDAEDGPPELLFIHGGHTAKISDFSWNPNEPWVICSVSEDNIMQIWQMAENIYNDEESDVTTSELEGQGS

Variants of: B1
Conditions: with h4_human H4C16, P62805

Variant	effect of a mutation on the interaction
E356Q;D357N;E359Q;D360N	disrupting interaction
L30Y;E356Q;D357N;E359Q;D360N	disrupting interaction
L30Y	disrupting interaction
